Measured values from patent US20240117018A1.

Columns and labels:
Experiment in all cases: cell-based or functional assay
[1] = target: HIV-1 Env of pseudovirus 0815.v3.c3 (HIV-1)
[2] = target: HIV-1 Env of pseudovirus 191084 B7-19 (HIV-1)
[3] = target: HIV-1 Env of pseudovirus 191955_A11 (HIV-1)
[4] = target: HIV-1 Env of pseudovirus 211-9 (HIV-1)
[5] = target: HIV-1 Env of pseudovirus 231966.c02 (HIV-1)
[6] = target: HIV-1 Env of pseudovirus 235-47 (HIV-1)
[7] = target: HIV-1 Env of pseudovirus 263-8 (HIV-1)
[8] = target: HIV-1 Env of pseudovirus 3103.v3.c10 (HIV-1)
[9] = target: HIV-1 Env of pseudovirus 3301.v1.c24 (HIV-1)
[10] = target: HIV-1 Env of pseudovirus 3817.v2.c59 (HIV-1)
[11] = target: HIV-1 Env of pseudovirus 6041.v3.c23 (HIV-1)
[12] = target: HIV-1 Env of pseudovirus 6480.v4.c25 (HIV-1)
[13] = target: HIV-1 Env of pseudovirus 6540.v4.c1 (HIV-1)
[14] = target: HIV-1 Env of pseudovirus 6811.v7.c18 (HIV-1)
[15] = target: HIV-1 Env of pseudovirus 89-F1_2_25 (HIV-1)
[16] = target: HIV-1 Env of pseudovirus 928-28 (HIV-1)
[17] = target: HIV-1 Env of pseudovirus BJOX009000.02.4 (HIV-1)
[18] = target: HIV-1 Env of pseudovirus BJOX010000.06.2 (HIV-1)
[19] = target: HIV-1 Env of pseudovirus BJOX015000.11.5 (HIV-1)
[20] = target: HIV-1 Env of pseudovirus BJOX025000.01.1 (HIV-1)
[21] = target: HIV-1 Env of pseudovirus BJOX028000.10.3 (HIV-1)
[22] = target: HIV-1 Env of pseudovirus C1080.c03 (HIV-1)
[23] = target: HIV-1 Env of pseudovirus C3347.c11 (HIV-1)
[24] = target: HIV-1 Env of pseudovirus C4118.c09 (HIV-1)
[25] = target: HIV-1 Env of pseudovirus P0402_c2_11 (HIV-1)
[26] = target: HIV-1 Env of pseudovirus P1981_C5_3 (HIV-1)
[27] = target: HIV-1 Env of pseudovirus R1166.c01 (HIV-1)
[28] = target: HIV-1 Env of pseudovirus R2184.c04 (HIV-1)
[29] = target: HIV-1 Env of pseudovirus R3265.c06 (HIV-1)
[30] = target: HIV-1 Env of pseudovirus T251-18 (HIV-1)
[31] = target: HIV-1 Env of pseudovirus T255-34 (HIV-1)
[32] = target: HIV-1 Env of pseudovirus T257-31 (HIV-1)
[33] = target: HIV-1 Env of pseudovirus X1193_c1 (HIV-1)
[34] = target: HIV-1 Env of pseudovirus X1632_S2_B10 (HIV-1)
[35] = target: HIV-1 Env of pseudovirus X2088_c9 (HIV-1)
[36] = target: HIV-1 Env of pseudovirus X2131_C1_B5 (HIV-1)

With N49P7.1 (antibody) the IC50 (neutralisation, TZM.bl cells) [1] was 0.023 µg/mL, the IC80 (neutralisation, TZM.bl cells) [1] was 0.064 µg/mL and the MPI [1] was 100. It also gave an IC50 [2] of 0.069 µg/mL, an IC80 [2] of 0.2 µg/mL and an MPI [2] of 100. The IC50 [3] was 1.99 µg/mL, the IC80 [3] was 10.1 µg/mL and the MPI [3] was 98. The IC50 [4] was 0.34 µg/mL, the IC80 [4] was 1.17 µg/mL and the MPI [4] was 100. The IC50 (neutralisation, TZM.bl cells) [5] was 0.203 µg/mL, the IC80 (neutralisation, TZM.bl cells) [5] was 0.705 µg/mL and the MPI [5] was 100. The IC50 [6] was 0.078 µg/mL, the IC80 [6] was 0.419 µg/mL and the MPI [6] was 97. The IC50 [7] was 0.104 µg/mL, the IC80 [7] was 0.392 µg/mL and the MPI [7] was 100. It also gave an IC50 (neutralisation, TZM.bl cells) [8] of 0.229 µg/mL, an IC80 (neutralisation, TZM.bl cells) [8] of 0.772 µg/mL and an MPI [8] of 100. The IC50 (neutralisation, TZM.bl cells) [9] was 0.041 µg/mL, the IC80 (neutralisation, TZM.bl cells) [9] was 0.111 µg/mL and the MPI [9] was 100. It also gave an IC50 (neutralisation, TZM.bl cells) [10] of 1.48 µg/mL, an IC80 (neutralisation, TZM.bl cells) [10] of 8.36 µg/mL and an MPI [10] of 97. It also gave an IC50 (neutralisation, TZM.bl cells) [11] of 0.078 µg/mL, an IC80 (neutralisation, TZM.bl cells) [11] of 0.366 µg/mL and an MPI [11] of 100. For the same substance, the IC50 (neutralisation, TZM.bl cells) [12] was 0.056 µg/mL, the IC80 (neutralisation, TZM.bl cells) [12] was 0.192 µg/mL and the MPI [12] was 100. The IC50 (neutralisation, TZM.bl cells) [13] was 14.7 µg/mL, the IC80 (neutralisation, TZM.bl cells) [13] was > 50 µg/mL and the MPI [13] was 75. For the same substance, the IC50 (neutralisation, TZM.bl cells) [14] was 0.321 µg/mL, the IC80 (neutralisation, TZM.bl cells) [14] was 1.46 µg/mL and the MPI [14] was 100. The IC50 (neutralisation, TZM.bl cells) [15] was 41.6 µg/mL, the IC80 (neutralisation, TZM.bl cells) [15] was > 50 µg/mL and the MPI [15] was 58. It also gave an IC50 [16] of 0.23 µg/mL, an IC80 [16] of 0.775 µg/mL and an MPI [16] of 100. It also gave an IC50 [17] of 0.219 µg/mL, an IC80 [17] of 0.756 µg/mL and an MPI [17] of 100. The IC50 [18] was 0.132 µg/mL, the IC80 [18] was 0.623 µg/mL and the MPI [18] was 100. The IC50 [19] was 0.111 µg/mL, the IC80 [19] was 0.487 µg/mL and the MPI [19] was 100. The IC50 [20] was 0.057 µg/mL, the IC80 [20] was 0.378 µg/mL and the MPI [20] was 100. It also gave an IC50 [21] of 0.031 µg/mL, an IC80 [21] of 0.29 µg/mL and an MPI [21] of 100. It also gave an IC50 [22] of 0.144 µg/mL, an IC80 [22] of 1.05 µg/mL and an MPI [22] of 100. It also gave an IC50 [23] of 0.048 µg/mL, an IC80 [23] of 0.161 µg/mL and an MPI [23] of 100. It also gave an IC50 [24] of 0.048 µg/mL, an IC80 [24] of 0.216 µg/mL and an MPI [24] of 100. The IC50 [25] was 0.029 µg/mL, the IC80 [25] was 0.115 µg/mL and the MPI [25] was 100. The IC50 (neutralisation, TZM.bl cells) [26] was 0.216 µg/mL, the IC80 (neutralisation, TZM.bl cells) [26] was 0.494 µg/mL and the MPI [26] was 100. It also gave an IC50 [27] of 0.136 µg/mL, an IC80 [27] of 0.461 µg/mL and an MPI [27] of 100. It also gave an IC50 [28] of 0.018 µg/mL, an IC80 [28] of 0.04 µg/mL and an MPI [28] of 100. It also gave an IC50 [29] of 0.059 µg/mL, an IC80 [29] of 0.328 µg/mL and an MPI [29] of 100. It also gave an IC50 [30] of 0.229 µg/mL, an IC80 [30] of 0.794 µg/mL and an MPI [30] of 100. For the same substance, the IC50 [31] was 0.094 µg/mL, the IC80 [31] was 0.447 µg/mL and the MPI [31] was 100. For the same substance, the IC50 [32] was 0.209 µg/mL, the IC80 [32] was 1.04 µg/mL and the MPI [32] was 100. The IC50 [33] was 0.035 µg/mL, the IC80 [33] was 0.144 µg/mL and the MPI [33] was 100. The IC50 (neutralisation, TZM.bl cells) [34] was 17.9 µg/mL, the IC80 (neutralisation, TZM.bl cells) [34] was > 50 µg/mL and the MPI [34] was 65. The IC50 [35] was 0.199 µg/mL, the IC80 [35] was 0.726 µg/mL and the MPI [35] was 100. For the same substance, the IC50 (neutralisation, TZM.bl cells) [36] was 0.129 µg/mL, the IC80 (neutralisation, TZM.bl cells) [36] was 0.431 µg/mL and the MPI [36] was 100.
